Assay results as given in patent US20230395193A1 (priority 2020, published 2023).

B1: M-Q96HR9 (protein, UniProt Q96HR9 1-211, looked up)
Receptor expression-enhancing …: MDGLRQRVEHFLEQRNLVTEVLGALEAKTGVEKRYLAAGAVTLLSLYLLFGYGASLLCNLIGFVYPAYASIKAIESPSKDDDTVWLTYWVVYALFGLAEFFSDLLLSWFPFYYVGKCAFLLFCMAPRPWNGALMLYQRVVRPLFLRHHGAVDRIMNDLSGRALDAAAGITRNVLQVLARSRAGITPVAVAGPSTPLEADLKPSQTPQPKDK
B2: M-Q96ER3 (protein, UniProt Q96ER3 1-474, looked up)
Protein SAAL1: MDRNPSPPPPGRDKEEEEEVAGGDCIGSTVYSKHWLFGVLSGLIQIVSPENTKSSSDDEEQLTELDEEMENEICRVWDMSMDEDVALFLQEFNAPDIFMGVLAKSKCPRLREICVGILGNMACFQEICVSISSDKNLGQVLLHCLYDSDPPTLLETSRLLLTCLSQAEVASVWVERIQEHPAIYDSICFIMSSSTNVDLLVKVGEVVDKLFDLDEKLMLEWVRNGAAQPLDQPQEESEEQPVFRLVPCILEAAKQVRSENPEWLDVYMHILQLLTTVDDGIQAIVHCPDTGKDIWNLLFDLVCHEFCQSDDPPIILQEQKTVLASVFSVLSAIYASQTEQEYLKIEKVDLPLIDSLIRVLQNMEQCQKKPENSAESNTEETKRTDLTQDDFHLKILKDILCEFLSNIFQALTKETVAQGVKEGQLSKQKCSSAFQNLLPFYSPVVEDFIKILREVDKALADDLEKNFPSLKVQT
modifications: host interactor of M

System: SARS-CoV-1, MERS-CoV and SARS-CoV-2 proteins in HEK293T cells
Set-up: species or system human

| Molecule | MIST_MERS | MIST_SARS1 | MIST_SARS2 | Saint_MERS | Saint_SARS1 | Saint_SARS2 |
| --- | --- | --- | --- | --- | --- | --- |
| B1 | 0 | 0 | 0.9557 | 0 | 0 | 0.65 |
| B2 | 0 | 0.3763 | 0.7695 | 0 | 0.98 | 1 |
